The assay deals with G-actin, P68135. The assay can be described thus: size exclusion chromatography. The settings on record: chain shown with the change.

B1: MRTF-A(67–199) L74A; L78A; S98D (protein)
chain: LSERKNVAQLKAQQRRTREELVSQGIMPPLKDPAAFHEQRRSLERARTEDYLKRKIRSRPERAELVRMHILEETSAEPSLQAKQLKLKRARLADDLNEKIAQRPGPMELVEKNILPVESSLKEAIIVGQVNYP
As to B1, the other: actins (apparent stoichiometry of G-actin binding) worked out at 2.3.

For the origin of these results see PMC4963197, “Phosphorylation acts positively and negatively to regulate MRTF-A subcellular localisation and activity” (eLife, 2016).
